# Measurements reported in US20130143798A1 (Novo Nordisk, published 2013).
# Numbered stars: 1 amine (or outer) side, 2 acyl side, 3 side chain; on linkers, the order of the positions; unused ones are H or OH. Square brackets hold non-standard residues; d marks the D form. Side chains are listed from the residue outwards. Ends that are not written are not given here. * marks the point of attachment. C18 diacid = O=C(O)CCCCCCCCCCCCCCCCC(=O)*; γGlu = O=C(O)[C@H](CCC(=O)[*:2])N[*:1]; AEEA = NCCOCCOCC(=O)O; Aib = CC(C)(N)C(=O)O
# Molecular target: glucagon receptor (UniProt P47871 26-477, limits assumed)
# Sequence (P47871 26-477 limits assumed): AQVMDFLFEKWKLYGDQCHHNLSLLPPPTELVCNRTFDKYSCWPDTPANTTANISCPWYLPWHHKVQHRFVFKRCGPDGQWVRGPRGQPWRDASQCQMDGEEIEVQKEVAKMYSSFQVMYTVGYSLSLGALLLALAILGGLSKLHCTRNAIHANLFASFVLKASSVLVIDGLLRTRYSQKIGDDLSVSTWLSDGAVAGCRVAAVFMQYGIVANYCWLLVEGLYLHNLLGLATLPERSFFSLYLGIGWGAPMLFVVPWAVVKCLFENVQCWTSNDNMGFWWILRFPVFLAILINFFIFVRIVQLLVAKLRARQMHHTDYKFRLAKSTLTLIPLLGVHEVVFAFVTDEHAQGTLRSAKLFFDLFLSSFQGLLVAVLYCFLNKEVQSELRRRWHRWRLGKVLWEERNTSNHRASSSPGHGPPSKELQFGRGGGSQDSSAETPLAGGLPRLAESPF
# Assay: cell-based or functional assay
row,Binder,Assay (I) Glucagon [EC50]
1,HSQGTFTSDYSKYLDSKKAQEFVK([AEEA-AEEA-γGlu-C18 diacid])WLLNT,0.019 nM
2,HSQGTFTSDYSKYLDEKRAQEFVK([AEEA-AEEA-γGlu-C18 diacid])WLLNT-NH2 (N-terminus assumed; SMILES CC(C)C[C@H](NC(=O)[C@H](Cc1ccc(O)cc1)NC(=O)[C@H](CCCCN)NC(=O)[C@H](CO)NC(=O)[C@H](Cc1ccc(O)cc1)NC(=O)[C@H](CC(=O)O)NC(=O)[C@H](CO)NC(=O)[C@@H](NC(=O)[C@H](Cc1ccccc1)NC(=O)[C@@H](NC(=O)CNC(=O)[C@H](CCC(N)=O)NC(=O)[C@H](CO)NC(=O)[C@@H](N)Cc1c[nH]cn1)[C@@H](C)O)[C@@H](C)O)C(=O)N[C@@H](CC(=O)O)C(=O)N[C@@H](CCC(=O)O)C(=O)N[C@@H](CCCCN)C(=O)N[C@@H](CCCNC(=N)N)C(=O)N[C@@H](C)C(=O)N[C@@H](CCC(N)=O)C(=O)N[C@@H](CCC(=O)O)C(=O)N[C@@H](Cc1ccccc1)C(=O)N[C@H](C(=O)N[C@@H](CCCCNC(=O)COCCOCCNC(=O)COCCOCCNC(=O)CC[C@H](NC(=O)CCCCCCCCCCCCCCCCC(=O)O)C(=O)O)C(=O)N[C@@H](Cc1c[nH]c2ccccc12)C(=O)N[C@@H](CC(C)C)C(=O)N[C@@H](CC(C)C)C(=O)N[C@@H](CC(N)=O)C(=O)N[C@H](C(N)=O)[C@@H](C)O)C(C)C),0.015 nM
3,HSQGTFTSDYSKYLDSKAAQEFVK([AEEA-AEEA-γGlu-C18 diacid])WLLNT-NH2 (N-terminus assumed; SMILES CC(C)C[C@H](NC(=O)[C@H](Cc1ccc(O)cc1)NC(=O)[C@H](CCCCN)NC(=O)[C@H](CO)NC(=O)[C@H](Cc1ccc(O)cc1)NC(=O)[C@H](CC(=O)O)NC(=O)[C@H](CO)NC(=O)[C@@H](NC(=O)[C@H](Cc1ccccc1)NC(=O)[C@@H](NC(=O)CNC(=O)[C@H](CCC(N)=O)NC(=O)[C@H](CO)NC(=O)[C@@H](N)Cc1c[nH]cn1)[C@@H](C)O)[C@@H](C)O)C(=O)N[C@@H](CC(=O)O)C(=O)N[C@@H](CO)C(=O)N[C@@H](CCCCN)C(=O)N[C@@H](C)C(=O)N[C@@H](C)C(=O)N[C@@H](CCC(N)=O)C(=O)N[C@@H](CCC(=O)O)C(=O)N[C@@H](Cc1ccccc1)C(=O)N[C@H](C(=O)N[C@@H](CCCCNC(=O)COCCOCCNC(=O)COCCOCCNC(=O)CC[C@H](NC(=O)CCCCCCCCCCCCCCCCC(=O)O)C(=O)O)C(=O)N[C@@H](Cc1c[nH]c2ccccc12)C(=O)N[C@@H](CC(C)C)C(=O)N[C@@H](CC(C)C)C(=O)N[C@@H](CC(N)=O)C(=O)N[C@H](C(N)=O)[C@@H](C)O)C(C)C),0.033 nM
4,H[Aib]QGTFTSDYSKYLDK([AEEA-AEEA-γGlu-C18 diacid])KRAQEFVQWLLNT-NH2 (N-terminus assumed; SMILES CC(C)C[C@H](NC(=O)[C@H](Cc1ccc(O)cc1)NC(=O)[C@H](CCCCN)NC(=O)[C@H](CO)NC(=O)[C@H](Cc1ccc(O)cc1)NC(=O)[C@H](CC(=O)O)NC(=O)[C@H](CO)NC(=O)[C@@H](NC(=O)[C@H](Cc1ccccc1)NC(=O)[C@@H](NC(=O)CNC(=O)[C@H](CCC(N)=O)NC(=O)C(C)(C)NC(=O)[C@@H](N)Cc1c[nH]cn1)[C@@H](C)O)[C@@H](C)O)C(=O)N[C@@H](CC(=O)O)C(=O)N[C@@H](CCCCNC(=O)COCCOCCNC(=O)COCCOCCNC(=O)CC[C@H](NC(=O)CCCCCCCCCCCCCCCCC(=O)O)C(=O)O)C(=O)N[C@@H](CCCCN)C(=O)N[C@@H](CCCNC(=N)N)C(=O)N[C@@H](C)C(=O)N[C@@H](CCC(N)=O)C(=O)N[C@@H](CCC(=O)O)C(=O)N[C@@H](Cc1ccccc1)C(=O)N[C@H](C(=O)N[C@@H](CCC(N)=O)C(=O)N[C@@H](Cc1c[nH]c2ccccc12)C(=O)N[C@@H](CC(C)C)C(=O)N[C@@H](CC(C)C)C(=O)N[C@@H](CC(N)=O)C(=O)N[C@H](C(N)=O)[C@@H](C)O)C(C)C),0.007 nM
